Reference: IntAct's records for PubMed 14507921

Target: ANTXR1, Q9H6X2-2
Sequence (Q9H6X2 other isoform, or with tags, fused parts or gaps): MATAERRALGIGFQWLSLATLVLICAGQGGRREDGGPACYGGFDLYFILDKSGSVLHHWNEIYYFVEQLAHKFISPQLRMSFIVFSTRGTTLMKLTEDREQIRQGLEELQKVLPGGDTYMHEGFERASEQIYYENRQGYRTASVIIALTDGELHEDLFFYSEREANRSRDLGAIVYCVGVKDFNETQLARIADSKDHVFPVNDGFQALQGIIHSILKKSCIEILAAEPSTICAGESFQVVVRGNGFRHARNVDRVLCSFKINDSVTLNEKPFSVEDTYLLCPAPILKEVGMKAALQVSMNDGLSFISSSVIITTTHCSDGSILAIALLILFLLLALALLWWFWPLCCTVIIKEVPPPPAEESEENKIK

Substance: Protective antigen (Bacillus anthracis) (from UniProt P13423) D712N
- effect of a mutation on the interaction: decreasing interaction
